The text below walks through data of article PMC6479699, “Structural and Functional Characterization of the Human Thymidylate Synthase (hTS) Interface Variant R175C, New Perspectives for the Development of hTS Inhibitors” (Molecules, 2019).

The series concerns the molecule itself. Kind of series: SEC; HiLoad 16/600 Superdex 75pg column, last purification step; sample dialysed in buffer A (50 mM Tris pH 6.9, 300 mM KCl) beforehand. (In gel filtration, larger molecules generally elute earlier.)

B1: His6-tag human thymidylate synthase variant R175C (enzyme, UniProt P04818 1-313, looked up)
chain: MPVAGSELPRRPLPPAAQERDAEPRPPHGELQYLGQIQHILRCGVRKDDRTGTGTLSVFGMQARYSLRDEFPLLTTKRVFWKGVLEELLWFIKGSTNAKELSSKGVKIWDANGSRDFLDSLGFSTREEGDLGPVYGFQWRHFGAEYRDMESDYSGQGVDQLQRVIDTIKTNPDDCRIIMCAWNPRDLPLMALPPCHALCQFYVVNSELSCQLYQRSGDMGLGVPFNIASYALLTYMIAHITGLKPGDFIHTLGDAHIYLNHIEPLKIQLQREPRPFPKLRILRKVEKIDDFKAEDFQIEGYNPHPTIKMEMAV
modifications: Cys195 oxidized to S-oxy-cysteine (CSX195) in all subunits of the crystal structure
notes: human thymidylate synthase (hTS, EC 2.1.1.45); Arg175 replaced by cysteine; In the crystal the chains were traced apart from the first 22-23 N-terminal residues and the C-terminal valine; also called HT-hTS R175C; hTS R175C; not shown: His6, N-terminal, kept
Take B1: the “stoichiometry N” value was determined as 2.

Broadly, the stoichiometry N is a count of units in the complex or per binding partner.
